Test results from patent US20100322938A1 (COMPUGEN, published 2010).

Target: T1, CGEN-CL1 peptide FYFWMNGDRIDSLLENDRQQT [SEQ ID NO: 1] (human, acetylated at its N-terminus; amidated at its C-terminus)
T1 construct: Made by solid-phase synthesis (Pepscan); molecular weight 2690.1
T1 peptide: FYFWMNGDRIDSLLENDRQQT
Experiment: SPR competition (BIAcore), peptides preincubated 30 min at 10 uM each, injected over immobilized clusterin
Description: Peptide-protein interaction was analyzed using surface plasmon resonance. Analysis of the interaction between CGEN-CL1 [SEQ ID NO:1] and recombinant human clusterin (Biovendor, Modrice, Czech republic cat no: RD172034100) was conducted using the BIAcore biosensor (Pharmacia Biosensor, Uppsala, Sweden). Clusterin was immobilized directly to a CM5 sensor chip (2000 resonance units (RU)). Solution containing either 10 μM of CGEN-CL1 [SEQ ID NO:1] peptide or a mixture of CGEN-CL1 and its partner helix (SEQ ID NO:5), 10 μM each, preincubated for 30 minutes at room temperature, was injected to the BIAcore. As a background, the solutions were also injected onto an empty flow cell with no immobilized ligand and the binding levels achieved were subtracted. Data was analyzed using BIAevaluation software.

binding result: binds
B1: partner helix peptide RLTRKYNELLKSYQWKMLNTSS [SEQ ID NO: 5] (peptide)
peptide: Ac-RLTRKYNELLKSYQWKMLNTSS-NH2
notes: Made by solid-phase synthesis (Pepscan); molecular weight 2760.2; also called helix partner; counterpart helix peptide
